According to article PMC6434538:
Like-named read-outs stand apart in the source and are kept apart here.

Columns and labels:
RIG-I wild type [1] = biological target: T1, RIG-I wild type (UniProt O95786 1-925); assay: ATPase titration or fluorescence titration
T1 sequence: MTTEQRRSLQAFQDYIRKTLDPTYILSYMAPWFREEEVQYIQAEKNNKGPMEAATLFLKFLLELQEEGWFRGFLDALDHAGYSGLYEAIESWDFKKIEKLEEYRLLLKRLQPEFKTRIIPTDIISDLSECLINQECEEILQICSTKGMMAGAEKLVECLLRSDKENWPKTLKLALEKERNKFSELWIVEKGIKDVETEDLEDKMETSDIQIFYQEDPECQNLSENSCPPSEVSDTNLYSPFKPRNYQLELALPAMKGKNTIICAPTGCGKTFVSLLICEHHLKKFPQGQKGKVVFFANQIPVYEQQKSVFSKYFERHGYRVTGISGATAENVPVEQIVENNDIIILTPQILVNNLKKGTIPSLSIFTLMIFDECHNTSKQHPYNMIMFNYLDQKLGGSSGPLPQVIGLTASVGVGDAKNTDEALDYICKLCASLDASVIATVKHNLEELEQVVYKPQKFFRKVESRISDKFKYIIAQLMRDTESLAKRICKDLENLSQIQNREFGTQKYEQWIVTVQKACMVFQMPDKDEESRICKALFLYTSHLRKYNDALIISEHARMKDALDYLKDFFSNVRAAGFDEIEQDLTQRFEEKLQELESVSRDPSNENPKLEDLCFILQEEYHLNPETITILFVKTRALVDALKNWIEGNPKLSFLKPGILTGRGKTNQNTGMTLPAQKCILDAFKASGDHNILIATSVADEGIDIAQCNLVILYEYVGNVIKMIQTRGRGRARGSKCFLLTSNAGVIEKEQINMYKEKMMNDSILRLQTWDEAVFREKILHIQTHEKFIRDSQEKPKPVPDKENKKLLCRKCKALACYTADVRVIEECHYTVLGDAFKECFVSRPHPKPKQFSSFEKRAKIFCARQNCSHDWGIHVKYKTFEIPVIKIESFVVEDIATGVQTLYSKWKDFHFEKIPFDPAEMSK

RIG-I wild type [2] = biological target: T1, RIG-I wild type; assay: fluorescence intensity titration
RIG-I wild type [3] = biological target: T1, RIG-I wild type; assay: fluorescence intensity titration; remark: listed apart in the source

B1: 5'ppp dsRNA 27 bp (dsRNA)
RNA 1: AUACGUCCUGAUAGUUAGUAUCCAUCG
RNA 2: CGAUGGAUACUAACUAUCAGGACGUAU
modifications: 5'-triphosphate on strand 1
B1 gave a Kd (RIG-I wild type [1]) of 2.5 nM.

B2: 3'ovg dsRNA (dsRNA)
RNA 1: ACGUCCUGAUAGUUAGUAUCCAUCG
RNA 2: CGAUGGAUACUAACUAUCAGGACGUAU
modifications: 5'OH
In the case of B2, the binding signal (RIG-I wild type [2]) is reported as 50 fold higher Kd than 5'ppp dsRNA and the binding signal (RIG-I wild type [3]) is reported as 7 fold higher Kd than 5'ppp dsRNA.

B3: 5'OH dsRNA 27 bp (dsRNA)
RNA 1: AUACGUCCUGAUAGUUAGUAUCCAUCG
RNA 2: CGAUGGAUACUAACUAUCAGGACGUAU
modifications: 5'OH
B3 was tested, and the binding signal (RIG-I wild type [3]) was 1.5 fold higher Kd than 5'ppp dsRNA.
